Assay results as given in patent US20230312724A1 (KADMON, published 2023).
Like-named read-outs stand apart in the source and are kept apart here.

Columns and labels:
[1] = target: T1, hB7-H4 (soluble human B7-H4, construct not named) (human, UniProt Q7Z7D3 25-259, limits assumed); assay: SPR (Biacore)
T1 construct: also called soluble hB7-H4
T1 sequence: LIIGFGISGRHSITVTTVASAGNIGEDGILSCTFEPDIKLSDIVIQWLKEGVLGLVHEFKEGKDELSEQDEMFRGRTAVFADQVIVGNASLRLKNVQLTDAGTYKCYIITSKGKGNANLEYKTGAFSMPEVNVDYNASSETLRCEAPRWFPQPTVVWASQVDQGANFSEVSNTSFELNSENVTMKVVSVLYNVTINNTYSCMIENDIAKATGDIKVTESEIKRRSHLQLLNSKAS
Method in brief: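 Ligands (human B7-H4-Fc, human B7-H4-his, mouse B7-H4-Fc) were amine-coupled to CM5 chips at 50-100 RU. Analyte was injected at 100 nM to 0.1 nM in HBS-EP, pH 7.4, at 25 °C, with 180 s association and 1000 or 1200 s dissociation. Kinetics were fitted to a 1:1 Langmuir model.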

[2] = target: T2, mB7-H4 (soluble mouse B7-H4, construct not named) (mouse, UniProt Q7TSP5 25-257, limits assumed); assay: summary of ELISA and flow cytometry
T2 sequence: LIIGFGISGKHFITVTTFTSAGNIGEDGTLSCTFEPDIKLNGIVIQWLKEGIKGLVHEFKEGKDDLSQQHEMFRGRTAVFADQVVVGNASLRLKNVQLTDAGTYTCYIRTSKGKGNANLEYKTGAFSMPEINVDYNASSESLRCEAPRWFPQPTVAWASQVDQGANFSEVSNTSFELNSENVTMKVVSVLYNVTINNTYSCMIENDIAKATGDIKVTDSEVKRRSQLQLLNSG

[3] = target: T3, IgV domain of mouse B7-H4-Fc (mouse; human); assay: ELISA, coated mB7-H4 IgV domain
T3 construct: also called mB7-H4 IgV domain
Description: (§1) ELISA experiments were performed to determine binding to hB7-H4-Fc (FIG. 4A), hB7-H4-his (FIG. 4B), hB7-H4 IgV domain (FIG. 4C), and mB7-H4 IgV domain (FIG. 4D). Flow cytrometry experiments were performed to determine binding to CHO cells expressing hB7-H4 (FIG. 4E) or mB7-H4 (FIG. 4F). […] A cross-reactive IgV binding antibody was used as a control.
(§2) About 1-2 μg/ml of human or mouse B7-H4-Fc (or his-tagged) was immobilized on ELISA plates (Immuno 2HB, Thermo scientific, cat #3455) at 4° C. overnight. After blocking the plates with 3% PBS+milk, serial diluted antibodies were added to the blocked plates and incubated at RT for 1-1.5 h. After washing the plates with PBS-T (0.05%), horse radish peroxidase (HRP)-conjugated antibody targeting the hFab was added to the plate. Signals were developed by adding 3,3′,5,5′-Tetramethylbenzidine (TMB (followed 1N of H₂SO₄ to stop the reaction. The OD at 450 nm was read by ELISA plate reader (Infinite M1000 from TECAN). GraphPad from Prism was used to plot OD450 vs. antibody concentration curve and to calculate the EC50 values.

[4] = target: T4, human B7-H4 expressed on cells (human, UniProt Q7Z7D3 25-282); assay: flow cytometry, SK-BR-3 cells
T4 construct: Transfected CHO cells or tumor cell lines that carry hB7-H4; also called cellular hB7-H4
T4 sequence: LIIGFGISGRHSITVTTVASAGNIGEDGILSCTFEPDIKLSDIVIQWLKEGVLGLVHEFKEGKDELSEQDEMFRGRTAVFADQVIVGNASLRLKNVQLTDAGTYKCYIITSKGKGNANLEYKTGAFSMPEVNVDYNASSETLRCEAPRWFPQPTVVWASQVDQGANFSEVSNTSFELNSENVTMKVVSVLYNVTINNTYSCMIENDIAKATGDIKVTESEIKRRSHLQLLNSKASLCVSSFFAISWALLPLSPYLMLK
Method in brief: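 Binding titrations: test proteins in serial dilution incubated on cells for 1 h at 4 °C in ice-cold FACS buffer. Detection with secondary antibody diluted 1:200.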

[5] = target: T5, mouse B7-H4 expressed on cells (mouse, UniProt Q7TSP5 25-257); assay: flow cytometry, CHO cells expressing mB7-H4
T5 construct: also called cellular mB7-H4; mB7-H4/CT26
T5 sequence: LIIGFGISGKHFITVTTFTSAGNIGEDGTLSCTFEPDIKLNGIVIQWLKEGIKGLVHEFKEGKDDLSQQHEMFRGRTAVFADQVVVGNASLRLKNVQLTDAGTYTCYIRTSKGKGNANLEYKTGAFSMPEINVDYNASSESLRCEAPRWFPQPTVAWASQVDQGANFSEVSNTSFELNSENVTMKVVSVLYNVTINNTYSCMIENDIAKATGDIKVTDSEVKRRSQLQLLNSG
Description: (§3) ELISA experiments were performed to determine binding to hB7-H4-Fc (FIG. 3A), hB7-H4-his (FIG. 3B), mB7-H4-Fc (FIG. 3C), and hB7-H4 IgV domain (FIG. 3D). Flow cytometry experiments were performed to determine binding to CHO cells expressing hB7-H4 (FIG. 3E) or mB7-H4 (FIG. 3F).
Cells were harvested, washed once, and then re-suspended to the concentration of 1×10⁶ cells/ml in ice cold FACS Buffer. 25 μl of cell suspension was added to each well of a 96-well round-bottom microliter plate. Serially diluted antibodies or fusion proteins were added to each well and incubated for 1 hour at 4° C. Cells were washed three times by centrifugation at 1500 rpm for 5 minutes, and then stained with secondary antibody (1:200 dilution) for 30 min at 4° C. in the dark. Cells were washed once, re-suspended in 100 μl PBS buffer and then analyzed using Guava Flow Cytometry EasyCyte system.

[6] = target: T6, mouse B7-H4-Fc (mouse; human); assay: ELISA, coated mB7-H4-Fc
T6 construct: also called mB7-H4-Fc; mB7-H4-hFc
Description: as §3, §2

[7] = target: T7, human B7-H4-Fc (human); assay: ELISA, coated hB7-H4-Fc
T7 construct: also called hB7-H4-Fc; hB7-H4 Fc
Description: as §1, §2

[8] = target: T8, human B7-H4-his (human, UniProt Q7Z7D3 25-259); assay: SPR (Biacore)
T8 construct: also called hB7-H4-his; hB7-H4 his; not shown: his tag
T8 sequence: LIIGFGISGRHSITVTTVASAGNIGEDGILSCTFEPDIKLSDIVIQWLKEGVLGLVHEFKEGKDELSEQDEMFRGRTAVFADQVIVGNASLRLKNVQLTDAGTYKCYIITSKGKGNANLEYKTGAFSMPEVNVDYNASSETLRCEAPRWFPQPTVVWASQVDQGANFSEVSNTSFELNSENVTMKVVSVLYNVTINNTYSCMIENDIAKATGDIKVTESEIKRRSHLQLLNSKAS

[9] = target: T7, human B7-H4-Fc; assay: SPR (Biacore)
[10] = target: T1, hB7-H4 (soluble human B7-H4, construct …); assay: ELISA, hB7-H4
Method in brief: (§4)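 Human or mouse B7-H4-Fc (or His-tagged) at about 1-2 μg/ml was coated overnight at 4° C and blocked with 3% milk. Serially diluted antibodies were added for 1-1.5 h at RT and detected with HRP anti-human Fab and TMB, reading OD450. EC50 was obtained from the OD450 vs. concentration curve.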

[11] = target: T9, mouse B7-H4-his (mouse, UniProt Q7TSP5 25-257); assay: ELISA, coated mB7-H4-his
T9 construct: also called mB7-H4-his; mB7-H4-His; not shown: his tag
T9 sequence: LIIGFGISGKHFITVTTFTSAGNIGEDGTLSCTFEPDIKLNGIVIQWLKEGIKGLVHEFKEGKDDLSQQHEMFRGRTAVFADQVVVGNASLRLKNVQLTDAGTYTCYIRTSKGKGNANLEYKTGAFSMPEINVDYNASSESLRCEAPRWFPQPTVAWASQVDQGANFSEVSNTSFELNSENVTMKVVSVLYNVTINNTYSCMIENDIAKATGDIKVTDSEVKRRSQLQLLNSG
Description: as §2

[12] = target: T10, IgV domain of human B7-H4-Fc (human); assay: ELISA, coated hB7-H4 IgV domain
T10 construct: also called hB7-H4 IgV domain
Description: as §1, §2

[13] = target: T11, IgC domain of mouse B7-H4-Fc (mouse; human); assay: ELISA, coated mB7-H4 IgC domain (title on the sheet: IgC domain of mB7H4)
T11 construct: also called mB7-H4 IgC domain
Description: as §2

[14] = target: T2, mB7-H4 (soluble mouse B7-H4, construct …); assay: ELISA and SPR (Biacore)
Description: as §2
Surface plasmon resonance experiments were performed using a Biacore T200 instrument equipped with CM5 sensor chips. The system was equilibrated in running buffer HBS-EP pH 7.4. The ligands were immobilized using amine-coupling chemistry. The surfaces of flow cells one through four were activated for 5 min using an amine coupling kit at a flow rate of […]. The ligands (human B7-H4-Fc, human B7-H4-hism and mouse B7-H4-Fc; at a concentration of 5 μg/ml in 10 mM sodium acetate, pH 5.0) were immobilized at a density of 50-100 RU on flow cell 2, 3, 4 respectively. Flow cell 1 was left blank to serve as a reference surface. All flow cell surfaces were blocked with a 5 min injection of 1 M ethanolamine, pH 8.0. To collect kinetic binding data, the respective analyte (diluted in 1×HBS-EP buffer, pH 7.4) was injected over the four flow cells at concentrations of 100 nM to 0.1 nM at a flow rate of […] and at a temperature of 25° C. The protein complex was allowed to associate and dissociate for 180 seconds and 1000 or 1200 seconds, respectively. The surfaces were regenerated with a 30 second injection of 1.5 M NaCl/0.05 M NaOH. The data were fit to a simple 1:1 interaction model using the Langmuir fit option available within the Biaevaluaton software

[15] = target: T12, IgC domain of human B7-H4-Fc (human); assay: ELISA, coated hB7-H4 IgC domain (title on the sheet: IgC domain of hB7H4)
T12 construct: also called hB7-H4 IgC domain
Description: as §2

[16] = target: T3, IgV domain of mouse B7-H4-Fc; assay: ELISA, coated mB7-H4 IgV domain; remark: listed apart in the source
Method in brief: as §4

[17] = target: T5, mouse B7-H4 expressed on cells; assay: flow cytometry, CHO cells expressing mB7-H4; remark: listed apart in the source
[18] = target: T6, mouse B7-H4-Fc; assay: ELISA, coated mB7-H4-Fc (title on the sheet: Binding to mB7-H7-Fc)
Description: as §2

T6 sequence (chain, as listed by the source): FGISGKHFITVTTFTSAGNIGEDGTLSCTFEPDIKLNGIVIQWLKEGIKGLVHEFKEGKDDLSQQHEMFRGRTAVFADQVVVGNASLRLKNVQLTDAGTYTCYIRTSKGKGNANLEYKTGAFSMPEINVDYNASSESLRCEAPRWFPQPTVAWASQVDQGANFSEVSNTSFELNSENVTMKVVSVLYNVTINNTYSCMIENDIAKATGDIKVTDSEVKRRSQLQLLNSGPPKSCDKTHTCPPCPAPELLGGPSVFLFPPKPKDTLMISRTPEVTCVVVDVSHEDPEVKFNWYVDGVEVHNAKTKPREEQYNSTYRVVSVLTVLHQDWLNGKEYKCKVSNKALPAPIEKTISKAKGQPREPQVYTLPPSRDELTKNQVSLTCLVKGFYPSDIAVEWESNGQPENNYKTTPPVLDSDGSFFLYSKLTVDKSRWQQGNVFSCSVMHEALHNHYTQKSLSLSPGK
T3 sequence (chain, as listed by the source): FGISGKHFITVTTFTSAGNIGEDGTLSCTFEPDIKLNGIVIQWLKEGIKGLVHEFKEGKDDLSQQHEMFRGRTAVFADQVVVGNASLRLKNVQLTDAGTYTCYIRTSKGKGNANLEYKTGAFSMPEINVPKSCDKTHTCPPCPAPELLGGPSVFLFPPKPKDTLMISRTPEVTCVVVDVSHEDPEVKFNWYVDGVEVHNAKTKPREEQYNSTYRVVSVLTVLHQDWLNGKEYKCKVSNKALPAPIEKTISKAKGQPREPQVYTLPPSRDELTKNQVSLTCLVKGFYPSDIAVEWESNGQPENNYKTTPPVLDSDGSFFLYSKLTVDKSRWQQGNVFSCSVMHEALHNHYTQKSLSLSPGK
T11 sequence (chain, as listed by the source): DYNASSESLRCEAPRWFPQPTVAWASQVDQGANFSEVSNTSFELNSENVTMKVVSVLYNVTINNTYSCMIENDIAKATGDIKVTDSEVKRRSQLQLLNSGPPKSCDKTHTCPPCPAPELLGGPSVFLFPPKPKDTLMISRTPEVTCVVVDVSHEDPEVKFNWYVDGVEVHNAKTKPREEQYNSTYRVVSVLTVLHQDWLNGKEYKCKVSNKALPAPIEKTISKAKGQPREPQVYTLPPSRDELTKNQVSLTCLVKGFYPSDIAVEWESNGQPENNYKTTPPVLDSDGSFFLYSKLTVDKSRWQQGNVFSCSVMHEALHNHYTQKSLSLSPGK
T7 sequence (chain, as listed by the source): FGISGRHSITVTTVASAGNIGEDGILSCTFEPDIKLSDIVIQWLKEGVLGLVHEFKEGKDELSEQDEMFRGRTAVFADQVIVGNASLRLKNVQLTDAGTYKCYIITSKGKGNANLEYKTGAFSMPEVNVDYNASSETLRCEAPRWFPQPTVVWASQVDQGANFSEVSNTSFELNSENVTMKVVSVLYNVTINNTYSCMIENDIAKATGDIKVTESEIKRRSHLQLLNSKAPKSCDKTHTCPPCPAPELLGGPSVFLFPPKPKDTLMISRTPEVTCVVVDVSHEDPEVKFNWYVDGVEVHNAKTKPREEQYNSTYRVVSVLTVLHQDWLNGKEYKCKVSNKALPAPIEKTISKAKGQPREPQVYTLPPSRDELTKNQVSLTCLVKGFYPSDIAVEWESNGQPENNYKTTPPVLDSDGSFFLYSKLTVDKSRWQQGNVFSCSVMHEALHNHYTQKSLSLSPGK
T12 sequence (chain, as listed by the source): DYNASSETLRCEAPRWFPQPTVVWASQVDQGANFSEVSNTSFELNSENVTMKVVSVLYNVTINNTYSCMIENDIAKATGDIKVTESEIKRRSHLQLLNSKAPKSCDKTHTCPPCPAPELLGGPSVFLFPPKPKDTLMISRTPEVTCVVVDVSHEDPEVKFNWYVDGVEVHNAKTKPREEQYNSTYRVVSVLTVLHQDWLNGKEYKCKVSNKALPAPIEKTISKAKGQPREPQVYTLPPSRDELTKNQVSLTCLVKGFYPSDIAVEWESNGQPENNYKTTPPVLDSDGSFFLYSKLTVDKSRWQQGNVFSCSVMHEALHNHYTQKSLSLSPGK
T10 sequence (chain, as listed by the source): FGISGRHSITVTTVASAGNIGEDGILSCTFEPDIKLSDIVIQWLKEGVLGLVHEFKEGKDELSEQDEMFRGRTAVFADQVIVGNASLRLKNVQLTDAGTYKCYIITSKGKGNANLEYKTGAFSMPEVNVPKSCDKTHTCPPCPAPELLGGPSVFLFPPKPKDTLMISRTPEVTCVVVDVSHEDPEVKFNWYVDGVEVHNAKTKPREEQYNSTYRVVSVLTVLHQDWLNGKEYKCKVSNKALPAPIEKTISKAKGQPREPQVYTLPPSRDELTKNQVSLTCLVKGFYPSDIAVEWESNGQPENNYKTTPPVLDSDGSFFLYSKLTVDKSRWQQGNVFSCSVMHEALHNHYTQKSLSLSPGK

B1: 1D3/1D3 (antibody, human IgG1, V domains shown)
VH: EVQLLESGGGLVQPGGSLRLSCAASGFTFNTHAMHWVRQAPGKGLEWVSAISGSGGSTYYADSVKGRFTISRDISKNTLYLQMNSLRAEDTAVYYCARLLGRFGEYGMDVWGQGTTVTVSS
VL: DIQMTQSPSSLSASVGDRVTITCRASRSIYTWLAWYQQKPGKAPKLLIYDASTLQSGVPSRFSGSGSGTDFTLTISSLQPEDFATYYCQQSYSTPYTFGGGTKVEIK
Kd [1]: 0.775 nM
binding result [2]: no binding
binding result [3]: no binding
EC50 [4]: 18.6 nM
binding result [5]: no binding (tested: axis value -7 (log scale labelled nM))
binding result [6]: no binding (tested: axis value -8 (log scale labelled nM))
EC50 (read off the curve) [7]: ~7 ng/mL
Kd [8]: 0.551 nM
Kd [9]: 0.805 nM
EC50 [10]: 0.044 nM
binding result [11]: no binding (tested: axis value -8 (labelled log nM))
EC50 (read off the curve) [12]: ~10 ng/mL
binding result [13]: no binding (tested: axis value -8 (labelled log nM))

B2: 1D3/47B2 (antibody, human IgG1, V domains shown)
VH: EVQLLESGGGLVQPGGSLRLSCAASGFTFNTHAMHWVRQAPGKGLEWVSAISGSGGSTYYADSVKGRFTISRDISKNTLYLQMNSLRAEDTAVYYCARLLGRFGEYGMDVWGQGTTVTVSS
VL: DIQMTQSPSSLSASVGDRVTITCRASQTVYTWLAWYQQKPGKAPKLLIYDATNLATGVPSRFSGSGSGTDFTLTISSLQPEDFATYYCQQSYSTSWTFGGGTKVEIK
notes: 1D3 VH with 47B2 VL
binding result [14]: no binding
Kd [1]: 0.209 nM
EC50 [4]: 36 nM
binding result [15]: no binding (tested: axis value -8 (labelled log nM))
binding result [16]: no binding (tested: axis value -8 (labelled log nM))
EC50 [10]: 0.078 nM
binding result [11]: no binding (tested: axis value -8 (labelled log nM))
binding result [17]: no binding (tested: log 2 nM (100 nM))
binding result [18]: no binding (tested: axis value -8 (log scale labelled nM))
binding result [13]: no binding (tested: axis value -8 (labelled log nM))
